Measurements: patent US9157088B2, “Transferases, epimerases, polynucleotides encoding these and uses thereof” (priority 2007, dated 2015)

B1: kiwifruit GDP-L-Galactose Guanyltransferase EST 319998 (Actinidia chinensis var. chinensis) (protein)
chain: MLKIKRVPTVVSNFQKDEAEDGARSGGGCGRNCLQKCCIQGAKLPLYAFKRVKEVVGEKGLLAVDDEEAPVAFLDSLLLGEWEDRVQRGLFRYDVTACETKVIPGEYGFIAQLNEGRHLKKRPTEFRVDKVLQPFDESKFNFTKVGQEEVLFQFEASDDNEVQFFPNAPVDVENSPSVVAINVSPIEYGHVLLIPRILECLPQRIDRESFLLALHMAAEAGNPYFRLGYNSLGAFATINHLHFQAYYLAVPFPIEKAPTRKITTLNGGVKISDLLNYPVRGLVFEGGNSLEDLSNAVSDSSICLQGNNIPYNVLISDSGKCIFLLPQCYAEKQALGEVSSDLLDTQVNPAVWEISGHMVLKRKEDYEEASEGNAWRLLAEVSLSEERFEEVKALIFEAISCADDRSGSTAENLLEEPDDNPQSRKVANDALNKGSHRGMVPGKQECLVQH

Columns and labels:
[1] = assay type: physicochemical
From the text: GDP-L-Galactose (˜50% pure, contaminated with the breakdown products GDP and L-Galactose-1-Phosphate as shown by HPLC and LCMS) and L-Galactose-1-Phosphate were purchased from Glycoteam, Hamburg, Germany. […] Other biochemicals were purchased from Sigma.

[2] = target: T1, kiwifruit GDP-L-Galactose Guanyltransferase EST 319998 (Actinidia chinensis, UniProt A0A2R6QD99); experiment: Fixed time transferase assay, aliquots measured by LCMS; assay type: biochemical; details: acceptor Mannose-1-P; 0.057 ug protein
Description: (§1) The assay for GDP-L-Galactose-1-Phosphate Guanyltransferase was run in 20 mM TrisCl, pH 8.0, GDP-L-Galactose, with 1 mM D-Mannose-1-Phosphate. GDP-L-Galactose was either used directly from the Glycoteam product (in which case high backgrounds were observed due to contaminating L-Galactose-1-Phosphate) or GDP-L-Galactose was generated using the epimerase. In the latter case, 0.21 mg of epimerase was incubated with GDP-D-Mannose in 20 mM Tris Cl pH 8 in a total volume of 400 μL (see Wolucka et al., 2001) for 30 minutes at 20 C and then used directly in the assay at a 1 to 20 dilution. Assays were either terminated after 10 minutes by heating to 100 C for three minutes, or directly coupled to the phosphatase and L-Galactose dehydrogenase to measure product formation during the assay. Heat terminated assays were cooled on ice, centrifuged to remove precipitated protein and L-Galactose assayed using the coupling enzymes described above (see also (Laing et al., 2004)). Assays for L-Galactose were linear with added L-Galactose-1-Phosphate over the range measured. Backgrounds were run using the empty vector control, which gave the same result as a boiled enzyme control.
As an alternative assay, LCMS was used to identify the forward reaction described above as well measure as the reverse pyrophosphorylase reaction where GTP (1 mM) and L-Galactose-1-Phosphate were incubated as above and the formation of GDP-L-Galactose followed. GDP-D-Mannose and GDP-L-Galactose were separated by HPLC before MS. LC-MS employed an LTQ linear ion trap mass spectrometer fitted with an ESI interface (ThermoQuest, Finnigan, San Jose, Calif., USA) coupled to an EttanTM MDLC (GE Healthcare Bio-Sciences). Separation of GDP-D-Mannose and GDP-L-Galactose was achieved using a Hypercarb column (Thermo Electron, USA), 100×2.1 mm maintained at 40 C. Solvents were (A) 50 mM ammonium acetate and (B) acetonitrile and the flow rate was 200 uL/min. The initial mobile phase, 5% B was held for 3 min, then ramped linearly to 20% B at 11 min, held for 5 min, then ramped linearly to 70% B at 19 min and held for 5 min before resetting to the original conditions. Retention times for GDP-D-Mannose and GDP-L-Galactose were 16.8 min and 17.5 min, respectively.
MS data was acquired in the negative mode using both a selective reaction monitoring (SRM) method SRM m/z 604>m/z 344, 362, 424, 442 and a selected ion monitoring (SIM) method SIM m/z 604. This SIM method monitors only the (M-H)— ion for GDP-D-Mannose and GDP-L-Galactose while the SRM method monitors the distinctive daughter ions formed by fragmenting the precursor ion (M-H)— for both compounds. Both methods maximise sensitivity by screening out any chemical noise from other compounds present. The ESI voltage, capillary temperature, sheath gas pressure, sweep gas and auxiliary gas were set at −10 V, 350° C., 25 psi, 3 psi, and 3 psi, respectively. Separation of D-Mannose-1-Phosphate and L-Galactose-1-Phosphate was achieved isocratically using a Hypercarb column (Thermo Electron, USA), 100×2.1 mm maintained at 40° C. Solvents were (A) 20 mM ammonium acetate and (B) methanol and the flow rate was 200 uL/min. Using a mobile phase of 2% B the retention times for D-Mannose-1-Phosphate and L-Galactose-1-Phosphate were 4.3 min and 4.9 min, respectively. MS data was acquired in the negative mode using both a selective reaction monitoring (SRM) method SRM m/z 259>m/z 79, 97 and a selected ion monitoring (SIM) method SIM m/z 259. […]

[3] = target: T1, kiwifruit GDP-L-Galactose Guanyltransferase EST 319998; experiment: Fixed time transferase assay, aliquots measured using coupling enzymes; assay type: biochemical; details: acceptor Mannose-1-P; 0.057 ug protein
Description: as §1, with “Heat terminated assays were cooled on ice, centrifuged to remove precipitated protein and L-Galactose assayed using the coupling enzymes described above (see also (Laing et al., 2004)).” left out, “Backgrounds were run using the empty vector control, which gave the same result as a boiled enzyme control.” left out
(§2) The applicants used two assays to characterise the enzyme, using two sources of the substrate GDP-L-Galactose. […] The applicants either measured the product formed by adding the coupling enzymes in the assay and measuring the time course of NADH formed, or by stopping the reaction after 10 minutes by boiling for 3 minutes and centrifuging. […]

Arabidopsis plants = experiment: Leaf ascorbate in stably transformed Arabidopsis plants; assay type: in vivo, Arabidopsis thaliana; details: third generation, kanamycin resistant plants; FIGS. 20A-20B
Description: In the second generation, up to 12 plants from each line, selected from the kanamycin plates, were grown to a standard size of a complete rosette of leaves in the glasshouse and ascorbate measured (FIG. 19). […] The increased ascorbate ranged up to over 4 times the normal level of ascorbate in Arabidopsis leaves.
Selected plants from the second generation were taken on to the next generation. […] Again the applicants observed plants with leaf ascorbate over 4 times the control level (FIGS. 20A-20B), but again within a line with high ascorbate progeny, there were always plants with high and low ascorbate in spite of all plants coming from a high ascorbate kanamycin resistant parent. […] Regions of complete sequence identity are found, when the 319998 and Arabidopsis sequence is aligned (data not shown). This could account for the apparent silencing seen.

[4] = tested on: Tobacco (Nicotiana benthamiana) leaves; experiment: Leaf ascorbate after transient transformation of tobacco leaves; assay type: in vivo
From the text: (§3) Tobacco (Nicotiana benthamiana) was transiently transformed with Agrobacterium containing the kiwifruit gene for GDP-L-Galactose Guanyltransferase (EST 319998) cloned in pGreen (Hellens et al., 2000) mixed with Agrobacterium containing the gene for the silencing suppressor P19 as previously described (Hellens et al., 2005). Controls were run using Agrobacterium containing P19 in pGreen alone. Tobacco leaves were harvested 9 days after transformation and frozen in liquid nitrogen.
Ascorbate was extracted as described previously in metaphosphoric acid without reducing agent (Davey et al., 2003; Rassam and Laing, 2005). […]

[5] = Transferase activity of E. coli expressed enzymes (coupled reaction and LCMS); assay type: biochemical; details: enzyme expressed in E. coli, His tag purified
Description: Expression of genes in E. coli. The EST 319998 from young fruit of Actinidia chinensis and At4g26850 were each cloned into pET30A (Novagene, USA), their sequence checked and expressed in E. coli. The N terminal His6 tag was used to purify the protein. An empty vector control was expressed and purified in parallel. Techniques were essentially as described earlier (Laing et al., 2004). In much of this work the His-protein was further purified on a 5 mL HiTrap Q FF column (GE Healthcare), and identical results were obtained with both preparations.
as §1, with “control. […]” for “control.”
as §2

[6] = tested on: Tobacco (Nicotiana benthamiana) leaves; experiment: Transferase activity in extracts of transiently transformed tobacco leaves; assay type: in vivo; details: transient expression in pGreen mixed with P19
Description: The transferase activity in tobacco leaves was measured by extracting liquid nitrogen ground leaves in approximately five volumes of TrisCI pH 8.0, 2 mM DTT and 1 mM EDTA, centrifuging, desalting the supernatant using a NAP desalting column equilibrated with the same buffer and assaying the enzyme using the coupled assay described above. Protein in the extracts was measured using the Biorad Bradford Coumassie assay (Bradford, 1976) using BSA as a standard.
as §3

[7] = substrate: O=P(O)(O)O[C@H]1O[C@H](CO)[C@@H](O)[C@H](O)[C@@H]1O; experiment: purified protein, by the assay type; details: other: varying concentrations of the guanyl acceptor; continuous coupled assay; FIG. 3; pH 8.0; 20.0 °C
Description: The assay for GDP-L-Galactose-1-Phosphate Guanyltransferase was run in 20 mM TrisCl, pH 8.0, GDP-L-Galactose, with 1 mM D-Mannose-1-Phosphate. GDP-L-Galactose was either used directly from the Glycoteam product (in which case high backgrounds were observed due to contaminating L-Galactose-1-Phosphate) or GDP-L-Galactose was generated using the epimerase. In the latter case, 0.21 mg of epimerase was incubated with GDP-D-Mannose in 20 mM Tris Cl pH 8 in a total volume of 400 μL (see Wolucka et al., 2001) for 30 minutes at 20 C and then used directly in the assay at a 1 to 20 dilution. Assays were either terminated after 10 minutes by heating to 100 C for three minutes, or directly coupled to the phosphatase and L-Galactose dehydrogenase to measure product formation during the assay. […] Assays for L-Galactose were linear with added L-Galactose-1-Phosphate over the range measured.

[8] = tested on: Nicotiana tabacum ‘Samsun’; experiment: Leaf ascorbate in stably transformed tobacco; assay type: in vivo; details: two kanamycin resistant lines; FIG. 22
Description: Tobacco was transformed with 319998 and Kanamycin resistant lines selected. These plants were transferred to soil and grown until several leaves were expanded. Ascorbate and gene expression was measured in these leaves (FIG. 22).
Nicotiana tabacum ‘Samsun’ was transformed using Agrobacterium tumefaciens strain GV101 carrying the pHex vector containing EST 319998. Methods used were as described by Guerineau et al (1990), except kanamycin was used instead of sulphonamide selective agents at the rate of 100 mg.L-1.

Molecule | acid stability [1] | transferase activity, LCMS [2] | transferase activity, Coupled assay [3] [nmoles/sec/ug protein] | leaf ascorbate relative to the control level (Arabidopsis plants) | effect on leaf ascorbate ([4]; His tag in front of the transferase sequence in pGreen, FIGS. 17A-17B) | function of construct in raising leaf ascorbate ([4]; transferase cloned into pGreenII 0229 62-SK (bialaphos resistance), FIGS. 17A-17B) | effect on leaf ascorbate ([4]; transient expression with P19) | increase in leaf ascorbate compared to control leaves ([4]; transient expression with P19, listed as 319998) | effect on leaf ascorbate ([4]; transient expression with P19, listed as 319998_Ac) | increase in leaf ascorbate compared to control leaves ([4]; transient expression with P19, listed as transferase) [fold] | Leaf ascorbate levels, average ([4]; transient expression with P19, mean of three plants, three leaves per plant, harvested 9 days after transformation) | Relative amount of ascorbate ([4]; transient expression with P19, relative to controls) | GDP-L-Galactose Guanyltransferase activity of the expressed enzyme [5] | GDP-L-Galactose Guanyltransferase activity in leaf extract [6] | Km [7] [µM] | increase in leaf ascorbate [8] [%]
Nc1nc2c(ncn2[C@@H]2O[C@H](COP(=O)(O)OP(=O)(O)OC3O[C@@H](CO)[C@@H](O)[C@@H](O)[C@@H]3O)[C@@H](O)[C@H]2O)c(=O)[nH]1 (stereo partly drawn) [GDP-L-Galactose] | extremely acid labile | high BG | 0.017 |  |  |  |  |  |  |  |  |  |  |  |  | 
B1 |  |  |  | over 4 times | active in increasing leaf ascorbate | fully functional | usually was the most effective gene | three fold increase in ascorbate | increased ascorbate levels in the leaf | ~3 | 102.0 | 3.0 | could catalyse the conversion of GDP-L-Galactose to L-Galactose-1-P | measurable activity could be measured in the extract of the leaves | 110 ± 30 | 60
